From paper PMC6637015
Blank lines part the entries; values can stand above or below the substance they belong to.

Legend:
c-Abl [1] = target: c-Abl (UniProt P00520); assay: streptavidin precipitation of ligated FcRL1, c-Abl blot; details: reference: wild type; sites Y281
[2] = target: c-Abl SH2 domain, 127-217 (UniProt P00520); assay: GST-SH2 pull-down from cell lysate; details: reference: wild type; sites Y281
c-Abl [3] = target: c-Abl (UniProt P00520); assay: GSH-bead precipitation of co-expressed c-Abl–mCherry-GST; details: reference: wild type, sites Y281

- binding against the reference (c-Abl [1]): lost
- binding against the reference [2]: lost
Substance: FcRL1 (Fc receptor-like 1) (from UniProt Q8R4Y0) Y281F

- binding against the reference (c-Abl [3]; BCR ligation): lost
Substance: FcRL1 (Fc receptor-like 1) (from UniProt Q8R4Y0) Y281F, BCR ligation

- binding against the reference (c-Abl [3]; FcRL1 ligation): lost
Substance: FcRL1 (Fc receptor-like 1) (from UniProt Q8R4Y0) Y281F, FcRL1 ligation
